Results taken from PMC9381713, “Structural features of Dnase1L3 responsible for serum antigen clearance”.
Residue numbers refer to the chain shown, from its start.

Key:
Dnase1 = assay: fluorescence polarization; details: FP: 50 mM Hepes pH 7.5 (Results say pH 7.4), 100 mM NaCl, 0.1 mM EDTA (1 mM for Dnase1L3/Dnase1), 1% glycerol, 1 mM TCEP, 0.1% PEG 6000, 20 nM dsDNA, 30 min at …
[1] = target: T1, Dnase1L3 CTD peptide (cleaved from SH3-CTD) (human, UniProt Q13609); assay: fluorescence polarization; 100 mM NaCl, 0.1 mM EDTA; FP: 50 mM Hepes pH 7.5 (Results say pH 7.4), 100 mM NaCl, 0.1 mM EDTA (1 mM for Dnase1L3/Dnase1), 1% glycerol, 1 mM TCEP, 0.1% PEG 6000, 20 nM dsDNA, 30 min at; details: protein: recombinant; tags: TEV-cleaved from His-SH3 fusion; label: 5'-FAM on strand 1; blunt
T1 chain: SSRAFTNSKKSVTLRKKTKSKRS

Dnase1L3 R132A = target: T2, Dnase1L3 R132A (human, UniProt Q13609 21-305, R132A); assay: fluorescence polarization; 1 mM EDTA; FP: 50 mM Hepes pH 7.5 (Results say pH 7.4), 100 mM NaCl, 0.1 mM EDTA (1 mM for Dnase1L3/Dnase1), 1% glycerol, 1 mM TCEP, 0.1% PEG 6000, 20 nM dsDNA, 30 min at; details: protein: recombinant; blunt
T2 sequence: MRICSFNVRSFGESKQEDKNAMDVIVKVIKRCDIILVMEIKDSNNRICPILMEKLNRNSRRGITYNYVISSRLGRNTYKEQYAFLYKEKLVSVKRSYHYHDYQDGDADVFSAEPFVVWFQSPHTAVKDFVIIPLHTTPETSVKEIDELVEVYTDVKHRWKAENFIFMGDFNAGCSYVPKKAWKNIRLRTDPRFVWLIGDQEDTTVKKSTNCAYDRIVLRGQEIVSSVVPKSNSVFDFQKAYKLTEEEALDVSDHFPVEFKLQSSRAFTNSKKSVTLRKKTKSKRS

Dnase1L3 WT = target: T3, Dnase1L3 WT (human, UniProt Q13609 21-305); assay: as above; details: protein: recombinant; tags: His-MBP removed by TEV; blunt
T3 sequence: T2 sequence with A112R

GTGTTCGGACTCTGCCTCAAGACGGTAGTCAACGTGCTTG (double strand) [FITC 40-mer dsDNA]
Kd (Dnase1): 2.9 µM

B1: FAM 40-mer dsDNA (dsDNA)
DNA 1: GTGTTCGGACTCTGCCTCAAGACGGTAGTCAACGTGCTTG
DNA 2: CAAGCACGTTGACTACCGTCTTGAGGCAGAGTCCGAACAC
Kd [1]: 4.9 µM

B2: FITC 40-mer dsDNA (dsDNA)
DNA 1: B1 DNA 1
DNA 2: B1 DNA 2
Kd (Dnase1L3 R132A): 4.95 µM | Kd (Dnase1L3 WT): 0.99 ± 0.33 µM
